Blank lines part the entries; values can stand above or below the binder they belong to.
Experiments:
human PAI-1 [1] = molecular target: T1, human PAI-1 (human, UniProt P05121 24-402); test: cell-based or functional assay
[2] = molecular target: T2, human PAI-1 captured on immobilized human vitronectin (human, UniProt P04004 20-478); test: Biacore, hPAI-1 on vitronectin chip, two state reaction model (ka1)
T2 construct: non-covalent complex formed on the chip or plate; also called PAI-1/Vn complex; Vn captured hPAI-1
T2 sequence (chain, as listed by the source limits assumed, chain 1 of 2): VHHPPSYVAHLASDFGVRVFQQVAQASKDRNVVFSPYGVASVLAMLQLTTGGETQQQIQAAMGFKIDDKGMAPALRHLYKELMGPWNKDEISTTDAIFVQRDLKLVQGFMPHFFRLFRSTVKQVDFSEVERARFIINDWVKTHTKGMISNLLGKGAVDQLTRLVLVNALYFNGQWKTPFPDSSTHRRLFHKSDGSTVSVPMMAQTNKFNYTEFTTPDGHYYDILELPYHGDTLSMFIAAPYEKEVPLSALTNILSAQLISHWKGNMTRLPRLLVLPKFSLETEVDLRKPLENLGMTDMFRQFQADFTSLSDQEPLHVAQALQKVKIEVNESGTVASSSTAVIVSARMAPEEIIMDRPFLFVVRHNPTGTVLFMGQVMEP
T2 sequence (P04004 20-478 limits assumed, chain 2 of 2): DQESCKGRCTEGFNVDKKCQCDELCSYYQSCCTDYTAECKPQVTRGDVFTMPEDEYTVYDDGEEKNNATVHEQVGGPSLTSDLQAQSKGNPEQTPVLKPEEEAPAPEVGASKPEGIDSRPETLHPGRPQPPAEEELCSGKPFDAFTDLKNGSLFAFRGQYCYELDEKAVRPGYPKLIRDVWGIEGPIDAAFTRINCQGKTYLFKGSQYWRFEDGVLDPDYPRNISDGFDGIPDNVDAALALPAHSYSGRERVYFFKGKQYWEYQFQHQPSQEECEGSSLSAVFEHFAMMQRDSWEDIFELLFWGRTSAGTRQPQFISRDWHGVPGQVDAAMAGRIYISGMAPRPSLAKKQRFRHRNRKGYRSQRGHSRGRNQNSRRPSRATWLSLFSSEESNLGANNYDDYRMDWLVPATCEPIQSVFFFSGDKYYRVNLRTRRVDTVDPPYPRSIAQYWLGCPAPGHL

[3] = molecular target: T3, cyno PAI-1 captured on immobilized human vitronectin (cynomolgus monkey; human, UniProt P04004 20-478, limits assumed); test: Biacore, cPAI-1 on vitronectin chip, two state reaction model (kd1)
T3 construct: non-covalent complex formed on the chip; also called cPAI-1/Vn
T3 sequence (chain, as listed by the source limits assumed, chain 1 of 2): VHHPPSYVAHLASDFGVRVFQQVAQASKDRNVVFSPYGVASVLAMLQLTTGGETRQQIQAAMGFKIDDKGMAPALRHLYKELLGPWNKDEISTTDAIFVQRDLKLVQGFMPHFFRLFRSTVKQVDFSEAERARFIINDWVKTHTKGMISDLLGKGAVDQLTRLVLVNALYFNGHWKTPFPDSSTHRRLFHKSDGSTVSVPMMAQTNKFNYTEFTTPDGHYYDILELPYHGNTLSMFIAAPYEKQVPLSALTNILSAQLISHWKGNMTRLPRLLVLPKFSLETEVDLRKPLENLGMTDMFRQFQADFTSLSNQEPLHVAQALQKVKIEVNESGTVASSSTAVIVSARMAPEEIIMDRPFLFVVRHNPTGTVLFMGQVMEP
T3 sequence (P04004 20-478 limits assumed, chain 2 of 2): as the sequence (P04004 20-478 limits assumed, chain 2 of 2) above

[4] = molecular target: T3, cyno PAI-1 captured on immobilized …; test: Biacore, cPAI-1 on vitronectin chip, two state reaction model (ka1)
[5] = molecular target: T2, human PAI-1 captured on immobilized …; test: Biacore, hPAI-1 on vitronectin chip, two state reaction model
[6] = molecular target: T2, human PAI-1 captured on immobilized …; test: Biacore, hPAI-1 on vitronectin chip, two state reaction model (kd1)
[7] = molecular target: T3, cyno PAI-1 captured on immobilized …; test: Biacore, cPAI-1 on vitronectin chip, two state reaction model
[8] = molecular target: T4, glycosylated human PAI-1 (active form) (human, UniProt P05121 24-402, glycosylated); test: cell-based or functional assay
cynomolgus PAI-1 [9] = molecular target: T5, cynomolgus PAI-1 (cynomolgus monkey (Macaca fascicularis), UniProt P05121 24-402 (human entry)); test: Biacore, mAb on anti-human IgG Fc chip / cyno PAI-1, 1:1 model
T5 construct: produced in-house in E. coli (non-glycosylated); active cyno PAI-1 in the assays; also called cyno PAI-1; cPAI-1

human PAI-1 [10] = molecular target: T1, human PAI-1; test: Biacore, mAb on anti-human IgG Fc chip, 1:1 model
cynomolgus PAI-1 [11] = molecular target: T5, cynomolgus PAI-1; test: cell-based or functional assay
human PAI-1 [12] = molecular target: T1, human PAI-1; test: cell-based or functional assay; remark: listed apart in the source
cynomolgus PAI-1 [13] = molecular target: T5, cynomolgus PAI-1; test: Biacore, hybridoma supernatant
human PAI-1 [14] = molecular target: T1, human PAI-1; test: Biacore, hybridoma supernatant
[15] = molecular target: T4, glycosylated human PAI-1 (active form); test: cell-based or functional assay; remark: listed apart in the source
[16] = molecular target: T4, glycosylated human PAI-1 (active form); test: cell-based or functional assay; remark: listed apart in the source
[17] = molecular target: T4, glycosylated human PAI-1 (active form); test: Biacore (summary table)
Protocol: (§1) In kinetics measurement, the antibodies were evaluated in reverse at 25° C. In the reverse assay, PAI-1 antibodies were captured to the anti-mouse IgG Fc antibody surface prepared on CM5 chip followed by injecting the serial 2× dilutions of PAI-1 proteins (human or cyno) starting at 40 nM. A high flow rate was chosen at 50 ul/min to avoid mass transportation limitation. Two thousand seconds was allowed for dissociation time to accommodate for the slow off rate of the selected antibodies. The chip was regenerated by glycine-HCl, pH 1.7 buffer after each round of antibody-PAI-1 binding. Kinetics data analysis was performed using Biacore BIAevaluation software. The sensorgrams were double-referenced by subtracting the reference flow cell values and the blank buffer values. The sensorgrams were fitted by using the simulated kinetics 1:1 (Langmuir) model with local Rmax.

human PAI-1 [18] = molecular target: T1, human PAI-1; test: Biacore reverse assay, mAb captured by anti-mouse IgG Fc, 25 C
Protocol: as §1

[19] = molecular target: T4, glycosylated human PAI-1 (active form); test: cell-based or functional assay; remark: listed apart in the source
human PAI-1 [20] = molecular target: T1, human PAI-1; test: cell-based or functional assay; remark: listed apart in the source
[21] = molecular target: T4, glycosylated human PAI-1 (active form); test: SPR Biacore 2000, mAb captured by anti-Fc, single-cycle kinetics, 1:1 model
Protocol: First, the surface of a Sensor Chip CM5 (GE Healthcare, Uppsala, Sweden) was prepared using routine amine coupling for the capture of the mouse and human anti-Fc (Anti-human IgG (Fc) antibody & Anti-mouse IgG antibody kits, GE Healthcare). All monoclonal antibodies (mAbs) were diluted to 5 nM using HBS-EP running buffer. Each purified mAb was captured for three minutes on a different flow cell surface. Human PAI-1 was injected at various concentrations (2.5, 5, 10, 20 and 40 nM) with short dissociation times in between and a long dissociation time at the end (contact time: 120 seconds, short dissociation: 90 seconds; long dissociation: 1800 seconds, flow rate: 50 μl/min). The chip was regenerated by glycine-HCl, pH 1.7 buffer after each round of antibody-PAI-1 binding. Kinetics data analysis was performed using Biacore BIAevaluation software. The sensorgrams were double-referenced by subtracting the reference flow cell values and the blank buffer values. The sensorgrams were fitted by using the simulated kinetics 1:1 (Langmuir) model with local Rmax. (see FIG. 19).

human PAI-1 [22] = molecular target: T1, human PAI-1; test: cell-based or functional assay; remark: listed apart in the source

B1: A44-hv7 (antibody, V domains shown)
VH: QMTLKESGPTLVKPTQTLSLTCSVSGESMTQGYWNWIRQFPGKALEYMGYITYSGSTYYNPSLKGRITITRQTSKNQYYLTLSSVTTVETATYYCARWHYGSPYYFDYWGQGTTLTVSS
VL: DIKMTQSPSSLSASVGDRVTITCKASQDINSYLSWLQQKPGKSPKTLIYRAQRSVEGVPSRFSGSGSGQDYSLTISSLQPEDLATYYCLQYDEFPPTFGGGTKLEIK
notes: humanized A44, HEK293; constant regions as for A44-hv1; also called LC4 x HC4; variant 7
Chromogenic Assay IC50 (human PAI-1 [1]): 590 pM
kon [2]: 4.14e+06 M⁻¹ s⁻¹
koff [3]: 0.000239 s⁻¹
kon [4]: 2.5e+06 M⁻¹ s⁻¹
Kd [5]: 96.4 pM
koff [6]: 0.000394 s⁻¹
Kd [7]: 95.6 pM

Plasminogen Activation IC50 [8]: 1820 pM
Plasminogen Activation Y50% [8]: 71.1%
Kd (cynomolgus PAI-1 [9]): 27 pM
koff (cynomolgus PAI-1 [9]): 5.08e-05 s⁻¹
kon (cynomolgus PAI-1 [9]): 1.89e+06 M⁻¹ s⁻¹
kon [2]: 2.4e+06 M⁻¹ s⁻¹
Kd (human PAI-1 [10]): 16.4 pM
koff (human PAI-1 [10]): 2.52e-05 s⁻¹
kon (human PAI-1 [10]): 1.54e+06 M⁻¹ s⁻¹
koff [3]: 0.000243 s⁻¹
kon [4]: 2.12e+06 M⁻¹ s⁻¹
Kd [5]: 179 pM
active PAI-1 by uPA-PAI-1 complex ELISA, Cyno PAI-1, IC50 (cynomolgus PAI-1 [11]): 28.1 pM
active PAI-1 by uPA-PAI-1 complex ELISA, Cyno PAI-1, Y50% (cynomolgus PAI-1 [11]): 52.8%
active PAI-1 by uPA-PAI-1 complex ELISA, hPAI-1 Standard, IC50 (human PAI-1 [12]): 166 pM
active PAI-1 by uPA-PAI-1 complex ELISA, hPAI-1 Standard, Y50% (human PAI-1 [12]): 52.8%
active PAI-1 by uPA-PAI-1 complex ELISA, hPlasma TH1782, IC50 (human PAI-1 [12]): 31.1 pM
active PAI-1 by uPA-PAI-1 complex ELISA, hPlasma TH1782, Y50% (human PAI-1 [12]): 61.4%
koff [6]: 0.000436 s⁻¹
Kd [7]: 115 pM
B2: A44-hv13 (antibody, V domains shown)
VH: QMQLQESGPGLVKPSETLSLTCTVSGDSMTNGYWNWIRQPPGKGLEYMGYITYSGSTYYNPSLKSRITISRDTSKNQYSLKLSSVTAADTAVYYCARWHYGSPYYFDYWGQGTLVTVSS
VL: DIKMTQSPSSLSASVGDRVTITCKASQDINSYLSWLQQKPGKSPKTLIYRAQRSVEGVPSRFSGSGSGQDYSLTISSLQPEDLGIYYCLQYDEFPPTFGGGTKLEIK
notes: humanized A44, HEK293; constant regions as for A44-hv1; also called LC2 x HC5b; variant 13

binding result (cynomolgus PAI-1 [13]): binds
koff (human PAI-1 [14]): ≤ 0.0001 s⁻¹
Chromogenic Assays [15]: ~4 nM
Plasmin Generation [15]: 8.61 nM
plasmin generation, hepatic stellate cells, IC50abs [16]: 8610 pM
plasmin generation, hepatic stellate cells, Imax [16]: 90%
B3: A71 (antibody, mouse IgG1, V domains shown)
VH: QVQLQQSGAELMKPGASVKISCKATGFTFSTYWIEWIKQRPGHGLDWIGEILPGSGNTNYNEKFKGKATFTADTSSNTVYMQLSSLTSEDSAVYYCARGGLYYNLDSWGQGTTLTVSS
VL: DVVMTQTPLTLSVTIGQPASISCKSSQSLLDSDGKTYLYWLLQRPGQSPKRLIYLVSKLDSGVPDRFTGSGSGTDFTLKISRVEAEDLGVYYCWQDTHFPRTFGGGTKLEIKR
notes: mouse IgG1/kappa; also called mA71; A71 (IgG1/k)

binding result (cynomolgus PAI-1 [13]): binds
koff (human PAI-1 [14]): ≤ 0.0001 s⁻¹
Kd [17]: 42 pM
Kd (human PAI-1 [18]): 42.3 pM
koff (human PAI-1 [18]): 0.000164 s⁻¹
Chromogenic Assays [15]: 7 nM
Plasmin Generation [15]: 27 nM
plasmin generation, hepatic stellate cells, IC50abs [16]: 27000 pM
plasmin generation, hepatic stellate cells, Imax [16]: 88%
B4: A105 (antibody, mouse IgG1, V domains shown)
VH: QVQLQQSGAELMKPGASVKISCKATGFTFSIYWIEWVKQRPGLGLEWIGEILPGSGSTNYNEKFKGKATFTADTSSNTAFMQLSSLTSEDSAVYYCARGGLYYDLDYWGQGTILTVSS
VL: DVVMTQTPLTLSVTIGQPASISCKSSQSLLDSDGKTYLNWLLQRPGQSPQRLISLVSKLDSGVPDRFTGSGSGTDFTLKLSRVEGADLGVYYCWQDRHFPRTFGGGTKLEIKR
notes: mouse IgG1/kappa; also called mA105; A105 (IgG1/k)

human plasma clot lysis, IC50 [19]: 2820 pM
human plasma clot lysis, Imax @ 100 nM [19]: 116%
PAI-1 activity in human plasma (uPA-PAI-1 complex ELISA), IC50abs (human PAI-1 [20]): 1280 pM
PAI-1 activity in human plasma (uPA-PAI-1 complex ELISA), Imax (human PAI-1 [20]): 94.4%
Kd [21]: 38 pM
koff [21]: 0.000359 s⁻¹
B5: APGv4 (antibody, V domains shown)
VH: QVQLVQSGAEVKKPGASVKVSCKASGYSFTDYNMNWVRQAPGQGLEWIGIIHPNSGTTTYNQKFKGRATLTVDQSTSTAYMELSSLRSEDTAVYYCARSKLRFFDYWGQGTLVTVSS
VL: DIQLTQSPSSLSASVGDRVTITCKASQDIYSYLSWFQQKPGKAPKTLIYRANRLIDGVPSRFSGSGSGQDYTFTISSLQPEDIATYYCLQYDEFPFTFGQGTKLEIK
notes: humanized APG; captured by anti-human IgG (Fc); also called APG variant 4

koff (human PAI-1 [14]): ≤ 0.0001 s⁻¹
EC50, % neutralization of hPAI-1 (chromogenic assay) (human PAI-1 [22]): 1080 pM
Chromogenic Assays [15]: 1.3 nM
Plasmin Generation [15]: 216 nM
B6: E21 (antibody, mouse IgG2b, V domains shown)
VH: EVQLQQSGAELVRSGASVKLSCTASGFNIKDYYMHWVKQRPEQGLEWIGWIDPENGDTEYDPKFQAKATMTADTSSNTAYLQLSSLTSEDTAVYYCMYGNYPYYFDYWGQGTTLTVSS
VL: DIQMTQTTSSLSASLGDRVTISCRASQDISNYLNWYQQKPDGTVKLLIYYTSRLHSGVPSRFSGSGSGTDYSLTISNLEQEDIATYFCQQGNTLPWTFGGGTKLEIK
notes: mouse IgG2b; also called mE21; E21 (IgG2b)

koff (human PAI-1 [14]): ≤ 0.0001 s⁻¹
EC50, % neutralization of hPAI-1 (chromogenic assay) (human PAI-1 [22]): 1240 pM
Chromogenic Assays [15]: 1.1 nM
Plasmin Generation [15]: 4.74 nM
plasmin generation, hepatic stellate cells, IC50abs [16]: 4740 pM
plasmin generation, hepatic stellate cells, Imax [16]: 95%
B7: E16 (antibody, mouse IgG1, V domains shown)
VH: EVKLVESGGGLVKPGGSLKLSCAASGFTFSNYGMSWVRQTPEKGLGWVASLRTGGNTYYSDSVKGRFTISRDNDRNILYLQMSSLTSEDTAVYYCARGLRHWGYFDVWGAGTTVTVSS
VL: DIVMTQSHKFMSTSVGDRVNITCKASQDVSTAVGWYQQEPGQSPKLLIYSASNRHTGVPDRFTGSGSGTDFTFTISSVQAEDLAVYYCQQHYSSPWTFGGGTKLEIK
notes: mouse IgG1; also called mE16; E16 (IgG1)

Reference: patent US20160200831A1 (Sanofi, published 2016)
